± gives the standard error. For some assays here: Variants at the floor of the assay were thinned out.
B1: glmS ribozyme (parent)
chain: AUAAAAGCGCCAGAACUACAGAAAUGUAGUUGACGAGGAGGAGGUUUAUCGAAUUUUCGGCGGAUGCCUCCAAA

Columns and labels:
Conditions in all cases: with glucosamine-6-phosphate
glucosamine-6-phosphate [1] = variants of: B1; test: kcat; higher = faster cleavage; RNA array
Procedure, shortened: (§1)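 Barcoded ribozyme variants on sequenced MiSeq chips were transcribed in situ by E. coli RNA polymerase and followed at 37 °C through a hybridised Cy3 probe. Glucosamine-6-phosphate at 40 μM to 10 mM in HEPES/KCl/Mg(OAc)2 buffer was flowed in, and tiles were imaged over ~14 h. Signals were normalised to baseline and to non-cleaving reference variants, and per-tile medians were fit to one- or two-exponential decays to give kobs. Weighted Michaelis–Menten fits across concentrations gave kcat and KM.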

glucosamine-6-phosphate [2] = variants of: B1; test: KM; higher = weaker cofactor use; RNA array
Procedure, shortened: as §1

glucosamine-6-phosphate [3] = variants of: B1; test: self-cleavage kobs at 2500 uM GlcN6P; higher = faster cleavage; RNA array
Procedure, shortened: as §1

glucosamine-6-phosphate [4] = variants of: B1; test: self-cleavage kobs at 10000 uM GlcN6P; higher = faster cleavage; RNA array
Procedure, shortened: as §1

glucosamine-6-phosphate [5] = variants of: B1; test: self-cleavage kobs at 640 uM GlcN6P; higher = faster cleavage; RNA array
Procedure, shortened: as §1

glucosamine-6-phosphate [6] = variants of: B1; test: self-cleavage kobs at 40 uM GlcN6P; higher = faster cleavage; RNA array
Procedure, shortened: as §1

glucosamine-6-phosphate [7] = variants of: B1; test: self-cleavage kobs at 160 uM GlcN6P; higher = faster cleavage; RNA array
Procedure, shortened: as §1

G41C U46A
kcat (glucosamine-6-phosphate [1]): 0.00012 ± 1.2e-05 s⁻¹ | KM (glucosamine-6-phosphate [2]): 3110 ± 830 µM | self-cleavage kobs at 2500 uM GlcN6P (glucosamine-6-phosphate [3]): 5.8e-05 ± 1.3e-05 s⁻¹ | self-cleavage kobs at 10000 uM GlcN6P (glucosamine-6-phosphate [4]): 9.03e-05 ± 1.3e-05 s⁻¹

G41C U46G
kcat (glucosamine-6-phosphate [1]): 0.000114 ± 3.4e-06 s⁻¹ | KM (glucosamine-6-phosphate [2]): 2060 ± 210 µM | self-cleavage kobs at 2500 uM GlcN6P (glucosamine-6-phosphate [3]): 6.37e-05 ± 1.1e-05 s⁻¹ | self-cleavage kobs at 10000 uM GlcN6P (glucosamine-6-phosphate [4]): 9.41e-05 ± 1e-05 s⁻¹

G40U A64G
kcat (glucosamine-6-phosphate [1]): 0.000292 ± 2.9e-05 s⁻¹ | KM (glucosamine-6-phosphate [2]): 1790 ± 360 µM | self-cleavage kobs at 640 uM GlcN6P (glucosamine-6-phosphate [5]): 8.19e-05 ± 1.2e-05 s⁻¹ | self-cleavage kobs at 2500 uM GlcN6P (glucosamine-6-phosphate [3]): 0.000145 ± 2.8e-05 s⁻¹ | self-cleavage kobs at 10000 uM GlcN6P (glucosamine-6-phosphate [4]): 0.00026 ± 3.3e-05 s⁻¹

G41C A53U
kcat (glucosamine-6-phosphate [1]): 0.000241 ± 3.2e-05 s⁻¹ | KM (glucosamine-6-phosphate [2]): 1290 ± 380 µM | self-cleavage kobs at 640 uM GlcN6P (glucosamine-6-phosphate [5]): 7.44e-05 ± 1.2e-05 s⁻¹ | self-cleavage kobs at 2500 uM GlcN6P (glucosamine-6-phosphate [3]): 0.000197 ± 3.2e-05 s⁻¹ | self-cleavage kobs at 10000 uM GlcN6P (glucosamine-6-phosphate [4]): 0.000201 ± 2.9e-05 s⁻¹

G41C A53C
kcat (glucosamine-6-phosphate [1]): 0.000159 ± 1.5e-05 s⁻¹ | KM (glucosamine-6-phosphate [2]): 3660 ± 720 µM | self-cleavage kobs at 640 uM GlcN6P (glucosamine-6-phosphate [5]): 1.93e-05 ± 9.5e-06 s⁻¹ | self-cleavage kobs at 2500 uM GlcN6P (glucosamine-6-phosphate [3]): 6.77e-05 ± 9.6e-06 s⁻¹ | self-cleavage kobs at 10000 uM GlcN6P (glucosamine-6-phosphate [4]): 0.000115 ± 1.5e-05 s⁻¹

G40U A53U
kcat (glucosamine-6-phosphate [1]): 0.00278 ± 0.00064 s⁻¹ | KM (glucosamine-6-phosphate [2]): 1300 ± 390 µM | self-cleavage kobs at 40 uM GlcN6P (glucosamine-6-phosphate [6]): 0.000101 ± 8.3e-06 s⁻¹ | self-cleavage kobs at 160 uM GlcN6P (glucosamine-6-phosphate [7]): 0.000254 ± 3.2e-05 s⁻¹ | self-cleavage kobs at 640 uM GlcN6P (glucosamine-6-phosphate [5]): 0.000821 ± 9.1e-05 s⁻¹ | self-cleavage kobs at 2500 uM GlcN6P (glucosamine-6-phosphate [3]): 0.00203 ± 0.00093 s⁻¹ | self-cleavage kobs at 10000 uM GlcN6P (glucosamine-6-phosphate [4]): 0.00266 ± 0.00031 s⁻¹

G41U A42C
kcat (glucosamine-6-phosphate [1]): 1.89e-05 ± 1.4e-06 s⁻¹ | KM (glucosamine-6-phosphate [2]): 2750 ± 590 µM | self-cleavage kobs at 40 uM GlcN6P (glucosamine-6-phosphate [6]): < 1e-05 s⁻¹ | self-cleavage kobs at 160 uM GlcN6P (glucosamine-6-phosphate [7]): < 1e-05 s⁻¹

G41A A48U
kcat (glucosamine-6-phosphate [1]): 4.08e-05 ± 6.1e-06 s⁻¹ | self-cleavage kobs at 40 uM GlcN6P (glucosamine-6-phosphate [6]): < 1e-05 s⁻¹ | self-cleavage kobs at 160 uM GlcN6P (glucosamine-6-phosphate [7]): < 1e-05 s⁻¹ | self-cleavage kobs at 2500 uM GlcN6P (glucosamine-6-phosphate [3]): 3.76e-05 ± 1.1e-05 s⁻¹ | self-cleavage kobs at 10000 uM GlcN6P (glucosamine-6-phosphate [4]): 3.63e-05 ± 1e-05 s⁻¹

G40C A52U
kcat (glucosamine-6-phosphate [1]): 8.17e-05 ± 1.4e-05 s⁻¹ | self-cleavage kobs at 2500 uM GlcN6P (glucosamine-6-phosphate [3]): 7.08e-05 ± 9.7e-06 s⁻¹ | self-cleavage kobs at 10000 uM GlcN6P (glucosamine-6-phosphate [4]): 7.15e-05 ± 8.3e-06 s⁻¹

G40C A52G
kcat (glucosamine-6-phosphate [1]): 0.00018 ± 3.1e-05 s⁻¹ | KM (glucosamine-6-phosphate [2]): 2990 ± 1200 µM | self-cleavage kobs at 640 uM GlcN6P (glucosamine-6-phosphate [5]): 2.38e-05 ± 8.1e-06 s⁻¹ | self-cleavage kobs at 2500 uM GlcN6P (glucosamine-6-phosphate [3]): 0.000102 ± 1.5e-05 s⁻¹ | self-cleavage kobs at 10000 uM GlcN6P (glucosamine-6-phosphate [4]): 0.000133 ± 1.5e-05 s⁻¹

A42G A53C
kcat (glucosamine-6-phosphate [1]): 0.00933 ± 0.0027 s⁻¹ | KM (glucosamine-6-phosphate [2]): 1540 ± 610 µM | self-cleavage kobs at 40 uM GlcN6P (glucosamine-6-phosphate [6]): 0.000286 ± 5.1e-05 s⁻¹ | self-cleavage kobs at 160 uM GlcN6P (glucosamine-6-phosphate [7]): 0.000666 ± 0.00018 s⁻¹ | self-cleavage kobs at 640 uM GlcN6P (glucosamine-6-phosphate [5]): 0.00271 ± 0.00065 s⁻¹ | self-cleavage kobs at 2500 uM GlcN6P (glucosamine-6-phosphate [3]): 0.0112 ± 0.0032 s⁻¹ | self-cleavage kobs at 10000 uM GlcN6P (glucosamine-6-phosphate [4]): 0.0076 ± 0.0015 s⁻¹

G40U U49G
kcat (glucosamine-6-phosphate [1]): 8.53e-05 ± 3.1e-05 s⁻¹ | self-cleavage kobs at 2500 uM GlcN6P (glucosamine-6-phosphate [3]): 9.77e-05 ± 2e-05 s⁻¹ | self-cleavage kobs at 10000 uM GlcN6P (glucosamine-6-phosphate [4]): 6.94e-05 ± 1.1e-05 s⁻¹

G40C U45A
kcat (glucosamine-6-phosphate [1]): 0.00147 ± 0.00022 s⁻¹ | KM (glucosamine-6-phosphate [2]): 823 ± 200 µM | self-cleavage kobs at 40 uM GlcN6P (glucosamine-6-phosphate [6]): 7.94e-05 ± 9.2e-06 s⁻¹ | self-cleavage kobs at 160 uM GlcN6P (glucosamine-6-phosphate [7]): 0.000183 ± 3.5e-05 s⁻¹ | self-cleavage kobs at 640 uM GlcN6P (glucosamine-6-phosphate [5]): 0.000631 ± 7.8e-05 s⁻¹ | self-cleavage kobs at 2500 uM GlcN6P (glucosamine-6-phosphate [3]): 0.00123 ± 0.00018 s⁻¹ | self-cleavage kobs at 10000 uM GlcN6P (glucosamine-6-phosphate [4]): 0.00131 ± 0.00019 s⁻¹

G43U U55A
kcat (glucosamine-6-phosphate [1]): 2.33e-05 ± 3.8e-07 s⁻¹ | KM (glucosamine-6-phosphate [2]): 1170 ± 67 µM | self-cleavage kobs at 160 uM GlcN6P (glucosamine-6-phosphate [7]): < 1e-05 s⁻¹

G44A U46G
kcat (glucosamine-6-phosphate [1]): 0.000265 ± 5.2e-05 s⁻¹ | self-cleavage kobs at 640 uM GlcN6P (glucosamine-6-phosphate [5]): 0.000114 ± 2.6e-05 s⁻¹ | self-cleavage kobs at 2500 uM GlcN6P (glucosamine-6-phosphate [3]): 0.000213 ± 4.4e-05 s⁻¹ | self-cleavage kobs at 10000 uM GlcN6P (glucosamine-6-phosphate [4]): 0.000221 ± 4.7e-05 s⁻¹

G41A A52G
kcat (glucosamine-6-phosphate [1]): 8.32e-05 ± 1.6e-05 s⁻¹ | self-cleavage kobs at 2500 uM GlcN6P (glucosamine-6-phosphate [3]): 7.3e-05 ± 1.3e-05 s⁻¹ | self-cleavage kobs at 10000 uM GlcN6P (glucosamine-6-phosphate [4]): 6.83e-05 ± 1.3e-05 s⁻¹

Reference: the supplement of paper PMC7125110
